The record followed here is paper doi:10.1101/2024.05.23.595586 (bioRxiv, 2024).

In the test the target is T1, MBP-TREM2 N79Q (MBP fused to TREM2 19-134) (human, UniProt Q9NZC2 19-134, N79Q).
T1 sequence (looked up): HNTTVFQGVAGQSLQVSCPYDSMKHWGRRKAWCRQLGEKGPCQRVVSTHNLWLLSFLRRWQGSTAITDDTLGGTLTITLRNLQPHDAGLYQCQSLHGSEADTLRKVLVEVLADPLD
In words: crystal structure.

Regarding DAEFRHDS [Amyloid beta peptide (1-8)], the binding result is on record as “binds”.
